This data set concerns the molecule itself. Nature of the data set: co-sedimentation; pelleting assay; each protein at 1 µM in polymerization buffer (10 mM Tris-HCl pH 7.5, 25 mM KCl, 2 mM MgCl2, 1 mM DTT) with 1 mM ATP, 25°C for 10 min, 100,000 x g for 30 min at 4°C; SDS-PAGE of pellet and supernatant.

This note sets out measurements from PMC13170167, “Magnetosome organelles are organized through interactions between McaA and McaB that alter the dynamics of the bacterial actin-like protein MamK” (mBio, 2026).

B1: MamK (untagged recombinant) (natural protein, Magnetospirillum magneticum AMB-1, UniProt Q2W8Q6 1-347, looked up)
chain: MSEGEGQAKNRLFLGIDLGTSHTAVMSSRGKKFLLKSVVGYPKDVIGLKLLGRPYVVGDEAFEMRSYLDIRYPLQDGVLSEISDRDIEVARHLLTHVVKSAEPGPNDEICAVIGVPARASAANKALLLKMAQEVVHTALVVSEPFMVGYGLDKLINTIIVDIGAGTTDICALKGTVPGPEDQVTLTKAGNYVDERLQNAILERHPELQMNVNVACAVKEQFSFVGTPTEVASFEFRAAGKPVRADVTEPVKIACEALMPDIIESIETLLRSFQPEYQATVLQNIVFAGGGSRIRGLAAYVKEKLRPFGDANVTCVKDPTFDGCRGALRLAEELPPQYWRQLGDVSGS
notes: MamK, bacterial actin-like protein of Magnetospirillum magneticum AMB-1; untagged; printed as 37.6 kDa; monomeric fractions were pooled; it forms filaments with ATP in polymerization buffer; also called purified MamK; MamK filaments; source: E. coli BL21, purified (ammonium sulfate precipitation, anion exchange, gel filtration)
Take B1: the binding result is “binds”.
